Target: human full-length alpha-synuclein (human) (UniProt P37840)
Experiment: indirect ELISA on coated full-length alpha-synuclein, O.D. 405 nm

Syn1 (antibody)
EC50 (read off the curve): 6 ng/mL

Source: patent publication US20250340623A1
